The target in experiment [1] is T1, human PD-1 expressed on CHO cells (human, UniProt Q15116 21-288).
T1 construct: also called CHO huPD1; CHO human PD1 cells
Kind of experiment: FMAT/Mirrorball on CHO huPD1 cells. The procedure:
(§1) Binding of His-tagged molecules to CHO human CD137, CHO parent and CHO human PD1 cells was assessed using Fluorescence Microvolume Assay Technology (FMAT). All reagents were prepared in FMAT assay buffer (pH 7.4) containing PBS, 0.1% Bovine Serum Albumin, 0.05% Sodium Azide. […] Fluorescence emission was then measured on the TTP Mirrorball plate reader in the FL2 (502 nm-537 nm) and FL5 (677-800 nm) channels following excitation at 488 nm and 640 nm. Data was gated on FL5 perimeter and peak intensity and the FL2 median mean fluorescence intensity of the gated data used for determination of VH binding. Monovalent CD137 specific Humabody® VH, and trispecific molecules with a CD137 binding arm bound to CHO CD137 expressing cells. Trispecific Humabody® VH, with a PD1 binding arm bound to PD1 expressing cells.

For experiment [2], the target named is T2, human CD137 expressed on CHO cells (human, UniProt Q07011 18-255).
T2 construct: also called CHO huCD137; CHO human CD137 cells
As to the kind of experiment: FMAT/Mirrorball on CHO huCD137 cells. The procedure: as §1

B1: TPP-1025: CD137A -6GS-HSA3-2-6GS-PDA2-His (bispecific antibody)
chain: EVQLVESGGGLVQPGGSLRLSCAASGFTLSNYWMNWVRQAPGKGLEWVANINQDGSERYYVDSVKGRFTISRDNAKNSLYLQMNSLRAEDTAVYYCARGGEGYGVDHYGLDVSGQGTTVTVSSGGGGSGGGGSGGGGSGGGGSGGGGSGGGGSEVQLLESGGGLVKPGGSLRLSCAASGFTVSSYTMNWVRQAPGKGLEWVSSISSSGRYIYYADSVKGRFTISRDNAKNSLYLQMNSLRAEDTAVYYCARDPRMVGNPHEFDIWGQGTMVTVSSGGGGSGGGGSGGGGSGGGGSGGGGSGGGGSEVQLVESGGGVVRPGGSLRLSCAASGFTFDDYAMSWVRQAPGKGLEWVSGITWNAGSTGYADSVKGRFTISRDNAKNSLYLQMNSLRAEDTALYYCVRDKYSYAWSYDDFDIWGQGTMVTVSSAAAHHHHHH
notes: Single-chain VH fusion (CD137 VH, HSA VH, PD-1 VH), His tag
With B1, the EC50 in experiment [1] was 1.23 nM. This counts as single-digit nanomolar.

B2: TPP-942: PDA-6GS-172E1-13-6GS-HSA2-2-His (bispecific antibody)
chain: EVQLVESGGGLVQPGRSLRLSCAASGFTFDDYALHWVRQAPGKDLEWVSGISWNGGSYGYADSVKGRFTISRDNAKNSLYLQMNSLRAEDTALYYCVREKGPGLTGSTADYYGLDAWGQGTMVTVSSGGGGSGGGGSGGGGSGGGGSGGGGSGGGGSEVQLVESGGGVVQPGGSLRLSCAASGFTFSNYGMHWVRQAPGKGLEWVAVISNDGNTKTYADSVKGRFTISRDNSKNTLYLQMNSLRAEDTAVYYCAQDETTTVTASYYFDYWGQGTLVTVSSGGGGSGGGGSGGGGSGGGGSGGGGSGGGGSEVQLVESGGGLVKPGGSLRLSCAASGFTFSNYNMNWVRQAPGKGLEWVSSISSAGTHIYYADSVKGRFTISRDNAKNSLYLQMNSLRAEDTAVYYCARDPHSTGWYKDFDYWGQGTLVTVSSAAAHHHHHH
notes: Single-chain fusion of VH single domains (PD-1 VH, CD137 VH, HSA VH) joined by 6GS linkers, His tag
On to B2, for which the EC50 in experiment [1] is 0.164 nM; in experiment [2], 0.157 nM.

B3: TPP-950: PDA2-6GS-172E1-13-6GS-HSA2-His (bispecific antibody)
chain: EVQLVESGGGVVRPGGSLRLSCAASGFTFDDYAMSWVRQAPGKGLEWVSGITWNAGSTGYADSVKGRFTISRDNAKNSLYLQMNSLRAEDTALYYCVRDKYSYAWSYDDFDIWGQGTMVTVSSGGGGSGGGGSGGGGSGGGGSGGGGSGGGGSEVQLVESGGGVVQPGGSLRLSCAASGFTFSNYGMHWVRQAPGKGLEWVAVISNDGNTKTYADSVKGRFTISRDNSKNTLYLQMNSLRAEDTAVYYCAQDETTTVTASYYFDYWGQGTLVTVSSGGGGSGGGGSGGGGSGGGGSGGGGSGGGGSEVQLVESGGGLVKPGGSLRLSCAASGFTFSNYNMNWVRQAPGKGLEWVSSISSAGTHIYYADSVKGRFTISRDNAKNSLYLQMNSLRAEDTAVYYCARDPHSTGWYKDFDYWGQGTLVTVSSAAAHHHHHH
notes: Single-chain VH fusion (PD-1 VH, CD137 VH, HSA VH), His tag
Consider B3, for which the figures for the EC50 in experiment [1] and in experiment [2] were 0.844 nM and 0.735 nM, respectively.

B4: TPP-957; PD138G7(G109D)-6GS-172E1-13-6GS-HSA2-His (bispecific antibody)
chain: EVQLVESGGGVVRPGGSLRLSCAASGFTFDDYAMSWVRQAPGKGLEWVSGITWNGGSTGYADSVKDRFTISRDNAKNSLYLQMNSLRAEDTALYYCVRDKYSYAWSYDDFDIWGQGTMVTVSSGGGGSGGGGSGGGGSGGGGSGGGGSGGGGSEVQLVESGGGVVQPGGSLRLSCAASGFTFSNYGMHWVRQAPGKGLEWVAVISNDGNTKTYADSVKGRFTISRDNSKNTLYLQMNSLRAEDTAVYYCAQDETTTVTASYYFDYWGQGTLVTVSSGGGGSGGGGSGGGGSGGGGSGGGGSGGGGSEVQLVESGGGLVKPGGSLRLSCAASGFTFSNYNMNWVRQAPGKGLEWVSSISSAGTHIYYADSVKGRFTISRDNAKNSLYLQMNSLRAEDTAVYYCARDPHSTGWYKDFDYWGQGTLVTVSSAAAHHHHHH
notes: as for B3
In the case of B4, the values for the EC50 in experiment [1] and in experiment [2] were 0.766 nM and 1.17 nM, respectively.

B5: TPP-943: PDA-6GS-172E1-13-6GS-HSA2-His (bispecific antibody)
chain: EVQLVESGGGLVQPGRSLRLSCAASGFTFDDYALHWVRQAPGKDLEWVSGISWNGGSYGYADSVKGRFTISRDNAKNSLYLQMNSLRAEDTALYYCVREKGPGLTGSTADYYGLDAWGQGTMVTVSSGGGGSGGGGSGGGGSGGGGSGGGGSGGGGSEVQLVESGGGVVQPGGSLRLSCAASGFTFSNYGMHWVRQAPGKGLEWVAVISNDGNTKTYADSVKGRFTISRDNSKNTLYLQMNSLRAEDTAVYYCAQDETTTVTASYYFDYWGQGTLVTVSSGGGGSGGGGSGGGGSGGGGSGGGGSGGGGSEVQLLESGGGLVKPGGSLRLSCAASGFTVSSYTMNWVRQAPGKGLEWVSSISSSGRYIYYADSVKGRFTISRDNAKNSLYLQMNSLRAEDTAVYYCARDPRMVGNPHEFDIWGQGTMVTVSSAAAHHHHHH
notes: Single-chain VH fusion
In the case of B5, the EC50 in experiment [1] was found to be 0.144 nM; in experiment [2] it was 0.207 nM.

B6: TPP-982: CD137A -6GS-HSA2-6GS-PDA-His (bispecific antibody)
chain: EVQLVESGGGLVQPGGSLRLSCAASGFTLSNYWMNWVRQAPGKGLEWVANINQDGSERYYVDSVKGRFTISRDNAKNSLYLQMNSLRAEDTAVYYCARGGEGYGVDHYGLDVSGQGTTVTVSSGGGGSGGGGSGGGGSGGGGSGGGGSGGGGSEVQLVESGGGLVKPGGSLRLSCAASGFTFSNYNMNWVRQAPGKGLEWVSSISSAGTHIYYADSVKGRFTISRDNAKNSLYLQMNSLRAEDTAVYYCARDPHSTGWYKDFDYWGQGTLVTVSSGGGGSGGGGSGGGGSGGGGSGGGGSGGGGSEVQLVESGGGLVQPGRSLRLSCAASGFTFDDYALHWVRQAPGKDLEWVSGISWNGGSYGYADSVKGRFTISRDNAKNSLYLQMNSLRAEDTALYYCVREKGPGLTGSTADYYGLDAWGQGTMVTVSSAAAHHHHHH
notes: as for B1
Turning to B6, the EC50 in experiment [1] came to 0.332 nM; in experiment [2], 0.0896 nM.

B7: TPP-951: PDA2-6GS-172E1-13-6GS-HSA3-His (bispecific antibody)
chain: EVQLVESGGGVVRPGGSLRLSCAASGFTFDDYAMSWVRQAPGKGLEWVSGITWNAGSTGYADSVKGRFTISRDNAKNSLYLQMNSLRAEDTALYYCVRDKYSYAWSYDDFDIWGQGTMVTVSSGGGGSGGGGSGGGGSGGGGSGGGGSGGGGSEVQLVESGGGVVQPGGSLRLSCAASGFTFSNYGMHWVRQAPGKGLEWVAVISNDGNTKTYADSVKGRFTISRDNSKNTLYLQMNSLRAEDTAVYYCAQDETTTVTASYYFDYWGQGTLVTVSSGGGGSGGGGSGGGGSGGGGSGGGGSGGGGSEVQLLESGGGLVKPGGSLRLSCAASGFTVSSYTMNWVRQAPGKGLEWVSSISSSGRYIYYADSVKGRFTISRDNAKNSLYLQMNSLRAEDTAVYYCARDPRMVGNPHEFDIWGQGTMVTVSSAAAHHHHHH
notes: as for B3
Regarding B7, the EC50 in experiment [1] is 0.805 nM; in experiment [2] it was 0.419 nM.

B8: TPP-958: PD138G7(G109D)-6GS-172E1-13-6GS-HSA3-His (bispecific antibody)
chain: EVQLVESGGGVVRPGGSLRLSCAASGFTFDDYAMSWVRQAPGKGLEWVSGITWNGGSTGYADSVKDRFTISRDNAKNSLYLQMNSLRAEDTALYYCVRDKYSYAWSYDDFDIWGQGTMVTVSSGGGGSGGGGSGGGGSGGGGSGGGGSGGGGSEVQLVESGGGVVQPGGSLRLSCAASGFTFSNYGMHWVRQAPGKGLEWVAVISNDGNTKTYADSVKGRFTISRDNSKNTLYLQMNSLRAEDTAVYYCAQDETTTVTASYYFDYWGQGTLVTVSSGGGGSGGGGSGGGGSGGGGSGGGGSGGGGSEVQLLESGGGLVKPGGSLRLSCAASGFTVSSYTMNWVRQAPGKGLEWVSSISSSGRYIYYADSVKGRFTISRDNAKNSLYLQMNSLRAEDTAVYYCARDPRMVGNPHEFDIWGQGTMVTVSSAAAHHHHHH
notes: as for B3
As to B8, the EC50 in experiment [1] came to 0.346 nM; in experiment [2], 0.499 nM.

B9: TPP-975: CD137D-6GS-PDA2-6GS-HSA2-His (bispecific antibody)
chain: EVQLVESGGGVVQPGGSLRLSCAASGFTFSNYGMHWVRQAPGKGLEWVAVISNDGNTKTYADSVKGRFTISRDNSKNTLYLQMNSLRAEDTAVYYCAQDETTTVTASYYFDYWGQGTLVTVSSGGGGSGGGGSGGGGSGGGGSGGGGSGGGGSEVQLVESGGGVVRPGGSLRLSCAASGFTFDDYAMSWVRQAPGKGLEWVSGITWNAGSTGYADSVKGRFTISRDNAKNSLYLQMNSLRAEDTALYYCVRDKYSYAWSYDDFDIWGQGTMVTVSSGGGGSGGGGSGGGGSGGGGSGGGGSGGGGSEVQLVESGGGLVKPGGSLRLSCAASGFTFSNYNMNWVRQAPGKGLEWVSSISSAGTHIYYADSVKGRFTISRDNAKNSLYLQMNSLRAEDTAVYYCARDPHSTGWYKDFDYWGQGTLVTVSSAAAHHHHHH
notes: Single-chain VH fusion (CD137 VH, PD-1 VH, HSA VH), His tag
B9: the figures for the EC50 in experiment [1] and in experiment [2] were 0.792 nM and 0.39 nM, respectively.

B10: TPP-971: PDA2-6GS-HSA2-6GS-172E1-13-His (bispecific antibody)
chain: EVQLVESGGGVVRPGGSLRLSCAASGFTFDDYAMSWVRQAPGKGLEWVSGITWNAGSTGYADSVKGRFTISRDNAKNSLYLQMNSLRAEDTALYYCVRDKYSYAWSYDDFDIWGQGTMVTVSSGGGGSGGGGSGGGGSGGGGSGGGGSGGGGSEVQLVESGGGLVKPGGSLRLSCAASGFTFSNYNMNWVRQAPGKGLEWVSSISSAGTHIYYADSVKGRFTISRDNAKNSLYLQMNSLRAEDTAVYYCARDPHSTGWYKDFDYWGQGTLVTVSSGGGGSGGGGSGGGGSGGGGSGGGGSGGGGSEVQLVESGGGVVQPGGSLRLSCAASGFTFSNYGMHWVRQAPGKGLEWVAVISNDGNTKTYADSVKGRFTISRDNSKNTLYLQMNSLRAEDTAVYYCAQDETTTVTASYYFDYWGQGTLVTVSSAAAHHHHHH
notes: Single-chain VH fusion (PD-1 VH, HSA VH, CD137 VH), His tag
Take B10: the EC50 is 0.414 nM in experiment [1] and 0.223 nM in experiment [2].

B11: TPP-983: CD137A -6GS-HSA2-6GS-PDA2-His (bispecific antibody)
chain: EVQLVESGGGLVQPGGSLRLSCAASGFTLSNYWMNWVRQAPGKGLEWVANINQDGSERYYVDSVKGRFTISRDNAKNSLYLQMNSLRAEDTAVYYCARGGEGYGVDHYGLDVSGQGTTVTVSSGGGGSGGGGSGGGGSGGGGSGGGGSGGGGSEVQLVESGGGLVKPGGSLRLSCAASGFTFSNYNMNWVRQAPGKGLEWVSSISSAGTHIYYADSVKGRFTISRDNAKNSLYLQMNSLRAEDTAVYYCARDPHSTGWYKDFDYWGQGTLVTVSSGGGGSGGGGSGGGGSGGGGSGGGGSGGGGSEVQLVESGGGVVRPGGSLRLSCAASGFTFDDYAMSWVRQAPGKGLEWVSGITWNAGSTGYADSVKGRFTISRDNAKNSLYLQMNSLRAEDTALYYCVRDKYSYAWSYDDFDIWGQGTMVTVSSAAAHHHHHH
notes: as for B1
Turning to B11, the values for the EC50 in experiment [1] and in experiment [2] were 0.24 nM and 0.0443 nM, respectively.
